Results as given in paper PMC4373775.
Where a chain is given by its changes, count along the chain named.

Tests used:
[1] = target: T1, ParB_Asp S5D;T32D;T41D;T53D;T110D;T195D;S239D;T254D;T300D;T303D (Mycobacterium tuberculosis H37Rv) (UniProt P9WIJ9); assay: EMSA
T1 sequence: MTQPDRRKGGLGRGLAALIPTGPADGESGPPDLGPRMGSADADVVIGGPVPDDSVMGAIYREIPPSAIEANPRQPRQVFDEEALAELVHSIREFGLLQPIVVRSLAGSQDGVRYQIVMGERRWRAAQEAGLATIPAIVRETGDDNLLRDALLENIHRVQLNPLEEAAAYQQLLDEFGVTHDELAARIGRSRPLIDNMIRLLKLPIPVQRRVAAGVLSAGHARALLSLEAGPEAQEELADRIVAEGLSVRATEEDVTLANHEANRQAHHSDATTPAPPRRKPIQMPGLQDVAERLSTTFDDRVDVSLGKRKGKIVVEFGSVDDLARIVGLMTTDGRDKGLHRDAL

[2] = target: T2, ParB_Ala S5A;T32A;T41A;T53A;T110A;T195A;S239A;T254A;T300A;T303A (Mycobacterium tuberculosis H37Rv) (UniProt P9WIJ9); assay: EMSA
T2 sequence: T1 sequence with D5A, D32A, D41A, D53A, D110A, D195A, D239A, D254A, D300A, D303A

GCGAGTGGAGGGACGGCGTGAGTGCTCCGTGGGGCCCGGTGGCCGCTGGACCGTCCGCGCTCGTAAGGTCGGGCCAGGCTTCAACTATCGAACCATTCCAGCGGGAAATGACACCACCGACACCGACGCCTGAGGCCGCGCACAATCCGACGATGAATGTTTCACGTGAAACATCGACAGAATTCGACACCCCCATCGGCGCTGCAGCAGAACGTGCGATGCG (double strand) [parS probe]
binding [1]: binds more weakly
binding [2]: binds
